Laboratory results: IntAct's records for PubMed 31515488

B1: Tektin-4 (Homo sapiens), Q8WW24 (parent)
chain: MAQTVPPCELPCKEYDVARNTGAYTSSGLATASFRTSKYLLEEWFQNCYARYHQAFADRDQSERQRHESQQLATETQALAQRTQQDSTRTVGERLQDTHSWKSELQREMEALAAETNLLLAQKQRLERALDATEVPFSITTDNLQCRERREHPNLVRDHVETELLKEAELIRNIQELLKRTIMQAVSQIRLNREHKETCEMDWSDKMEAYNIDETCGRHHSQSTEVQAHPYSTTFQESASTPETRAKFTQDNLCRAQRERLASANLRVLVDCILRDTSEDLRLQCDAVNLAFGRRCEELEDARYKLHHHLHKTLREITDQEHNVAALKQAIKDKEAPLHVAQTRLYLRSHRPNMELCRDAAQFRLLSEVEELNMSLTALREKLLEAEQSLRNLEDIHMSLEKDIAAMTNSLFIDRQKCMAHRTRYPTILQLAGYQ
partner: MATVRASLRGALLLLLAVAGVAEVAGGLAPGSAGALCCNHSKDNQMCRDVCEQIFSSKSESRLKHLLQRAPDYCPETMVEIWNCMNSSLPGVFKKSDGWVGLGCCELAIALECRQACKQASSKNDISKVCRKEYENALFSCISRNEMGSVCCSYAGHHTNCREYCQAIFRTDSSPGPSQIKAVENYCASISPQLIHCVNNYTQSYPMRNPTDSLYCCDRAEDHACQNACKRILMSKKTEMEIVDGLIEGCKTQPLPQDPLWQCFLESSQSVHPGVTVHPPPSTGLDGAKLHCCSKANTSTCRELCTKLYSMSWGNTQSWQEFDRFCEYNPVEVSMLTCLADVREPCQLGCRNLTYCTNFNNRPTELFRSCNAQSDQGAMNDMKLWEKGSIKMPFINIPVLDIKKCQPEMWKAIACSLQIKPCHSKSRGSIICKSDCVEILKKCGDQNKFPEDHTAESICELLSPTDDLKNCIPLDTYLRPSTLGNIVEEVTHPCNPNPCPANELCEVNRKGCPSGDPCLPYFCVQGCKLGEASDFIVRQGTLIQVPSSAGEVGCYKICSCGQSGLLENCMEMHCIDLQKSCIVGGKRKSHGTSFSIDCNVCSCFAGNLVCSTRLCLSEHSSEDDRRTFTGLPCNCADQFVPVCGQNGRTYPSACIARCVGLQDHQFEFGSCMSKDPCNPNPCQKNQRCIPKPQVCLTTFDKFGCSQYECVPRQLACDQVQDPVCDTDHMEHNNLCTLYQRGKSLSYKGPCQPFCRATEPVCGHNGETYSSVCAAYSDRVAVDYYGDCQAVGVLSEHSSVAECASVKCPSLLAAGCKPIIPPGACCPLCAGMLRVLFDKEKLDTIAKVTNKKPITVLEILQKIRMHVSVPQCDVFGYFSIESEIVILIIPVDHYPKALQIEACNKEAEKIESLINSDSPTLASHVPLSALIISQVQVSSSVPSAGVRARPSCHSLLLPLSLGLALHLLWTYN
B2: Zinc finger protein 774 (Homo sapiens), Q6NX45 (parent)
chain: MWLGTSGKSGLPGHCLENPLQECHPAQLEEWALKGISRPSVISQPEQKEEPWVLPLQNFEARKIPRESHTDCEHQVAKLNQDNSETAEQCGTSSERTNKDLSHTLSWGGNWEQGLELEGQHGTLPGEGQLESFSQERDLNKLLDGYVGEKPMCAECGKSFNQSSYLIRHLRTHTGERPYTCIECGKGFKQSSDLVTHRRTHTGEKPYQCKGCEKKFSDSSTLIKHQRTHTGERPYECPECGKTFGRKPHLIMHQRTHTGEKPYACLECHKSFSRSSNFITHQRTHTGVKPYRCNDCGESFSQSSDLIKHQRTHTGERPFKCPECGKGFRDSSHFVAHMSTHSGERPFSCPDCHKSFSQSSHLVTHQRTHTGERPFKCENCGKGFADSSALIKHQRIHTGERPYKCGECGKSFNQSSHFITHQRIHLGDRPYRCPECGKTFNQRSHFLTHQRTHTGEKPFHCSKCNKSFRQKAHLLCHQNTHLI
B3: Gem-associated protein 6 (Homo sapiens), Q8WXD5 (parent)
chain: MSEWMKKGPLEWQDYIYKEVRVTASEKNEYKGWVLTTDPVSANIVLVNFLEDGSMSVTGIMGHAVQTVETMNEGDHRVREKLMHLFTSGDCKAYSPEDLEERKNSLKKWLEKNHIPITEQGDAPRTLCVAGVLTIDPPYGPENCSSSNEIILSRVQDLIEGHLTASQ

Variants of: B1
Details: with reck_human RECK

Question: MAQTVPPCELPCKEYDVARNTGAYTSSGLATASFRTSKYLLEEWFQNCYARYHQAFADRDQSEWQRHESQQLATETQALAQRTQQDSTRTVGERLQDTHSWKSELQREMEALAAETNLLLAQKQRLERALDATEVPFSITTDNLQCRERREHPNLVRDHVETELLKEAELIRNIQELLKRTIMQAVSQIRLNREHKETCEMDWSDKMEAYNIDETCGRHHSQSTEVQAHPYSTTFQESASTPETRAKFTQDNLCRAQRERLASANLRVLVDCILRDTSEDLRLQCDAVNLAFGRRCEELEDARYKLHHHLHKTLREITDQEHNVAALKQAIKDKEAPLHVAQTRLYLRSHRPNMELCRDAAQFRLLSEVEELNMSLTALREKLLEAEQSLRNLEDIHMSLEKDIAAMTNSLFIDRQKCMAHRTRYPTILQLAGYQ [R64W] was tested. Which “effect of a mutation on the interaction” value did it give?
Answer: with no effect

Question: MAQTVPPCELPCKEYDVARNTGAYTSSGLATASFRTSKYLLEEWFQNCYARYHQAFADRDQSERQRHESQQLATETQALAQRTQQDSTRTVGERLQDTHSWKSELQREMEALAAETNLLLAQKQRLERALDATEVPFSITTDNLQCRERREHPNLVRDHVETELLKEAELIRNIQELLKRTIMQAVSQIRLNREHKETCEMDWSDKMEAYNIDETCGRHHSQSTEVQAHPYSTTFQESASTPETRAKFTQDNLCRAQRERLASANLRVLVDCILRDTSEDLRLQCDAVNLAFGRRCEELEDARYKLHHHLHKTLREITDQEHNVAALKQAIKDKEAPLHVAQTRLYLRSHRPNMELCRDAAQFRLLSEVEELNMSLTALREKLLEAEQSLRNLEDIHMSLEKDTAAMTNSLFIDRQKCMAHRTRYPTILQLAGYQ [I404T] was tested. Which “effect of a mutation on the interaction” value did it give?
Answer: disrupting interaction strength

Variants of: B2
Details: with trim1_human MID2, Q9UJV3
Chain of trim1_human MID2, Q9UJV3 (Q9UJV3 whole entry): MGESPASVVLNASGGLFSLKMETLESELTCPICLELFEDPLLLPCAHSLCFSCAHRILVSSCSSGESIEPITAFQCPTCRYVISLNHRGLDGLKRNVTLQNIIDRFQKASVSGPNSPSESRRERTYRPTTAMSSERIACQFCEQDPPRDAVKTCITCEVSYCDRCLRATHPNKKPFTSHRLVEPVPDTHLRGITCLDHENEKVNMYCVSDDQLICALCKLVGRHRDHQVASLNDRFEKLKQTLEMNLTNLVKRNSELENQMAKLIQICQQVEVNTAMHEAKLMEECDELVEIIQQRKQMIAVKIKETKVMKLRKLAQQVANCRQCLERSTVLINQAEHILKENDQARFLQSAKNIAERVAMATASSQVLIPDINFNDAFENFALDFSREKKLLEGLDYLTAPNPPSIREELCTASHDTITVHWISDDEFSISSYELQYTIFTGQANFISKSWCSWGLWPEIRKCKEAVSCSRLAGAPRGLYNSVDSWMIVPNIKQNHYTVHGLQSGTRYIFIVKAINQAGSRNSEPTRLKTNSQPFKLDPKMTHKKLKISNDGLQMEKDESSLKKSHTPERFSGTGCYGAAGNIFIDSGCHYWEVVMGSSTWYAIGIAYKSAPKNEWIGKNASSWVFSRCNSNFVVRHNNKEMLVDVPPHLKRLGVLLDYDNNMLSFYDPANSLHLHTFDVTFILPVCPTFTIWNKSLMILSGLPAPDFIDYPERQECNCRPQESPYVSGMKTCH

Question: MWLGTSGKSGLPGHCLENPLQECHPAQLEEWALKGISRPSVISQPEQKEEPWVLPLQNFEARKILRESHTDCEHQVAKLNQDNSETAEQCGTSSERTNKDLSHTLSWGGNWEQGLELEGQHGTLPGEGQLESFSQERDLNKLLDGYVGEKPMCAECGKSFNQSSYLIRHLRTHTGERPYTCIECGKGFKQSSDLVTHRRTHTGEKPYQCKGCEKKFSDSSTLIKHQRTHTGERPYECPECGKTFGRKPHLIMHQRTHTGEKPYACLECHKSFSRSSNFITHQRTHTGVKPYRCNDCGESFSQSSDLIKHQRTHTGERPFKCPECGKGFRDSSHFVAHMSTHSGERPFSCPDCHKSFSQSSHLVTHQRTHTGERPFKCENCGKGFADSSALIKHQRIHTGERPYKCGECGKSFNQSSHFITHQRIHLGDRPYRCPECGKTFNQRSHFLTHQRTHTGEKPFHCSKCNKSFRQKAHLLCHQNTHLI [P65L] was tested. Which “effect of a mutation on the interaction” value did it give?
Answer: with no effect

Variants of: B2
Details: with ldoc1_human LDOC1, O95751
Chain of ldoc1_human LDOC1, O95751 (O95751 whole entry): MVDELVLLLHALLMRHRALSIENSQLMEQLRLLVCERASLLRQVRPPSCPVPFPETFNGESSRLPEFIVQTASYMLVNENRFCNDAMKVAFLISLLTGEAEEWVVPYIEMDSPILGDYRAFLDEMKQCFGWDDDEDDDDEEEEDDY

Question: How did the “effect of a mutation on the interaction” value turn out when MWLGTSGKSGLPGHCLENPLQECHPAQLEEWALKGISRPSVISQPEQKEEPWVLPLQNFEARKIPRESHTDCEHQVAKLNQDNSETAEQCGTSSERTNKDLSHTLSWGGNWEQGLELEGQHGTLPGEGQLESFSQERDLNKLLDGYVGEKPMCAECGKSFNQSSYLIRHLRTHTGERPYTCIECGKGFKQSSDLVTHRRTHTGEKPYQCKGCEKKFSDSSTLIKHQRTHTGERPYECPECGKTFGRKPHLIMHQRTHTGEKPYACLECHKSFSRSSNFITHQRTHTGVKPYRCNDCGESFSQSSDLIKHQRTHTGERPFKCPECGKGFRDSSHFVAHMSTHSGERPFSCPDCHKSFSQSSHLVTHQRTHTGERPFKCENCGKGFADSSALIKHQRIHTGERPYKCGECGKSFNQSSHFITHQRIHLGDRPYRCPECGKTFNQRSHFLTHQRTHTGEKPFHCSKCNKSFCQKAHLLCHQNTHLI [R469C] was run?
Answer: disrupting interaction strength

Variants of: B3
Details: with gemi7_human GEMIN7, Q9H840
Chain of gemi7_human GEMIN7, Q9H840 (Q9H840 whole entry): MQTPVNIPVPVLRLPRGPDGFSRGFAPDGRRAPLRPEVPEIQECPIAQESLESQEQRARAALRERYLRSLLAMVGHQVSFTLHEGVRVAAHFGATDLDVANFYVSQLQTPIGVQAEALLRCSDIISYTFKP

Question: MSEWMKKGPLEWQDYIYKEVRVTASEKNEYKGWVLTTDPVSANIVLVNFLEDGSMSVTGIMGHAVQTVETMNEGDHRVREKLMHLFTSGDGKAYSPEDLEERKNSLKKWLEKNHIPITEQGDAPRTLCVAGVLTIDPPYGPENCSSSNEIILSRVQDLIEGHLTASQ was tested. Which “effect of a mutation on the interaction” value did it give?
Answer: with no effect

Question: Which “effect of a mutation on the interaction” value does the source give for MSEWMKKGPLEWQDYIYKEVRVTANEKNEYKGWVLTTDPVSANIVLVNFLEDGSMSVTGIMGHAVQTVETMNEGDHRVREKLMHLFTSGDCKAYSPEDLEERKNSLKKWLEKNHIPITEQGDAPRTLCVAGVLTIDPPYGPENCSSSNEIILSRVQDLIEGHLTASQ here?
Answer: with no effect

Question: For MSEWMKKGPLEWQDYIYKEVRVTASEKNEYKGWVLTTDPVSANIVLVNFLEDGSMSLTGIMGHAVQTVETMNEGDHRVREKLMHLFTSGDCKAYSPEDLEERKNSLKKWLEKNHIPITEQGDAPRTLCVAGVLTIDPPYGPENCSSSNEIILSRVQDLIEGHLTASQ, which “effect of a mutation on the interaction” value is on record?
Answer: with no effect

Question: With MSEWMKKSPLEWQDYIYKEVRVTASEKNEYKGWVLTTDPVSANIVLVNFLEDGSMSVTGIMGHAVQTVETMNEGDHRVREKLMHLFTSGDCKAYSPEDLEERKNSLKKWLEKNHIPITEQGDAPRTLCVAGVLTIDPPYGPENCSSSNEIILSRVQDLIEGHLTASQ as the variant, how does the “effect of a mutation on the interaction” value read?
Answer: with no effect
